Measured values from publication PMC4828840, “Structural insight into the cooperation of chloroplast chaperonin subunits” (BMC Biology, 2016).
Each block holds one molecule with its values, some of them ahead of it.

Tests used:
[1] = target: CPN60β1 homo-oligomer (Chlamydomonas reinhardtii); test: crystal structure; apo CPN60β1 homo-oligomer, 3.8 Å, space group P21, molecular replacement with apo GroEL
[2] = target: CPN60β1 homo-oligomer (Chlamydomonas reinhardtii)
GroEL = target: T1, GroEL (E. coli, UniProt P0A6F5 1-548); test: SEC; gel filtration, Superdex 200; 2 μM chaperonin and 10 μM GroES; buffer with 50 μM AMP-PNP; fractions on SDS-PAGE, Coomassie; details: both partners purified
T1 construct: GroEL, group I chaperonin of E. coli; Purification of proteins is in Additional file 1; copies: 14

stoichiometry N [1]: 14 subunits
Molecule: CPN60β1 homo-oligomer (natural protein)

inhibition of the ATPase activity of CPN60β1 (0.2 μM chaperonin, 0.4 μM co-chaperonin, 25 °C) [2]: 50%
Molecule: mitochondrial co-chaperonin Hsp10 from mouse (from UniProt Q64433 1-102) (natural protein)

binding result (GroEL): binds
B1: GroES (natural protein, E. coli, UniProt P0A6F9 1-97, looked up)
chain: MNIRPLHDRVIVKRKEVETKSAGGIVLTGSAAAKSTRGEVLAVGNGRILENGEVKPLDVKVGDIVIFNDGYGVKSEKIDNEEVLIMSESDILAIVEA
notes: GroES, co-chaperonin of E. coli; Purification of proteins is in Additional file 1
